Variants at the floor of the assay were thinned out.
B1: TPR 5TU (parent)
chain: GGAUCUUCUCGAUCUAACAAAAAAGACAAAUCUGCCACAAAGCUUGAGAGCAUCUUCGGAUGCAGAGGCGGCAGCCUUCGGUGGCGCGAUAGCGCCAACGUUCUCAACUAUGACACGCAAAACGCGUGCUCCGUUGAAUGGAGUUUAUCAUG

Variants of: B1
Experiment: polymerase ribozyme fitness, log enrichment relative to wild type (log ratio); higher = more active; in vitro selection for triplet polymerase activity
In short: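 Mutant libraries of each subunit of a heterodimeric triplet polymerase ribozyme were built by PCR and transcribed. Each library went through one round of in vitro selection in triplicate: annealing with biotinylated primer, partner subunit and triplets, frozen incubation at −7 °C, gel excision of extended constructs, streptavidin-bead capture and RT-PCR. Input and output libraries were Illumina-sequenced; only genotypes with ≥10 input reads and ≥1 read per output were kept. Fitness is log2(genotype enrichment/wild-type enrichment), using inverse-variance-weighted replicate averages.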

| Variant | polymerase ribozyme fitness (log ratio) |
| --- | --- |
| C79A U139C A142G U148A | ≤ -4.2 |
| U82G G100U G128A | ≤ -4.2 |
| U82G G86U | -1.46 |
| U82G G86A | -0.594 |
| U82G C85U A107U | -3.59 |
| U82A C96G | -0.244 |
| C79G A91G A113U | ≤ -4.2 |
| G80A C87U A89C C99A A120U | -2 |
| C79A U82A C96A A107U U139A | ≤ -4.2 |
| G81U G94C U144A | -0.944 |
| G81A G86A U148A | -3.94 |
| U82A G92C | 0.508 |
| U82A G92U | -0.55 |
| C79A C93A C95U | ≤ -4.2 |
| U82A G126A | 1.28 |
| G81A C105U | 1.52 |
| G81A C118A | -1.82 |
| G83A A115G A150G | -2.88 |
| U82C G88C C105U G141A C149U | ≤ -4.2 |
| G81A C93G | -3.86 |
| G83C C85G A122U | ≤ -4.2 |

| Variant | polymerase ribozyme fitness (log ratio) |
| --- | --- |
| C79G U148A | ≤ -4.2 |
| G81U G141A | 0.321 |
| G81C C93U U101G | 0.439 |
| C79U C93A A98U A122U | -4 |
| C79A U101G | ≤ -4.2 |
| G81C C87A A91U C93U C114G A138C G141C | ≤ -4.2 |
| U82G C96A | 0.287 |
| U82G C96U | -2.13 |
| G81A G86A | -1.56 |
| G81C C85G C95G | -3.07 |
| G83A U151A | -3.69 |
| G83A A91G C93U C149A | ≤ -4.2 |
| G81U G84U A119U G143A | -1.61 |
| G81U C85U A115C G136C | -3.36 |
| G83A A91C A142G | ≤ -4.2 |
| C79U A97G | -3.02 |
| C79G G128U | ≤ -4.2 |
| C79U C103G | ≤ -4.2 |
| U82C G86A | -2.06 |
| C79U C85U | -1.94 |
| G81C C85U | 0.0549 |

| Variant | polymerase ribozyme fitness (log ratio) |
| --- | --- |
| U82G C95A | -1.03 |
| G81A C131G G140C | -4 |
| G83A U101G A106U U145C | -2.55 |
| U82A C95A A97C C103U U134A | -3.46 |
| G80U G86U G94C C105A U134A | ≤ -4.2 |
| U82A A107U | -2.79 |
| G81C G94U A98U U146G | -0.695 |
| G83A U90G G94C A110G G152U | ≤ -4.2 |
| G80C G86U | -3.37 |
| G81A C103A | -1.13 |
| G80U U109C G143C | -4.04 |
| G83C C131G | -3.32 |
| U82G G86A C96A | -2.04 |
| U82G A137C | -2.98 |
| U82G G84A U145C | -0.385 |
| G81A U148C | -1.48 |
| C79U C93U | -3.03 |
| C79U C93A | -3.77 |
| U82A U102G U144G | -1.48 |
| G81C A98U A107G | ≤ -4.2 |
| C79A C103G | ≤ -4.2 |

| Variant | polymerase ribozyme fitness (log ratio) |
| --- | --- |
| G80U C95G C96A | ≤ -4.2 |
| G83A A97U A98U A138U | -4.07 |
| G80C C93G A115C U144C | ≤ -4.2 |
| G80A G81C C95G U145G | -1.72 |
| C79U C85G U101G | ≤ -4.2 |
| G83A A119C | -2.44 |
| G83A U146G | -1.33 |
| U82C C93G C116G C118U G140A A150C | ≤ -4.2 |
| U82A U102G | -2.54 |
| G83A A115C A122U U134A | -3.03 |
| C79A G83U U134G | ≤ -4.2 |
| G81A C85A G136A | 0.0509 |
| G83A G88U C125A G152U | ≤ -4.2 |
| G83C C132A | -2.69 |
| C79U A121U | -1.2 |
| G81A C85U C132A | -2.23 |
| G81A C87U A91U G112U G143A | ≤ -4.2 |
| G80C C103G G124A A147G | ≤ -4.2 |
| U82G G94U | -0.833 |
| G83C A115U A120U | -1.99 |
| U82G A89U A91U A98U G100C | ≤ -4.2 |
